From the supplement of paper PMC9876800

Tested on: peptide library, one residue held at a place counted from the S/T acceptor
Test: relative phosphorylation of the sub-library (ratio to the mean residue at this position); higher = residue favoured
Summary of the method: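 Relative sub-library phosphorylation is the ratio of each sub-library's signal to the mean residue at that position. The signal came from phosphorimaging of spots on streptavidin membranes, quantified by densitometry, after purified recombinant kinases reacted with biotinylated degenerate peptide sub-libraries in 384-well plates. Reactions held 50 μM peptide and 50 μM ATP spiked with γ-32P-ATP for 90 min under kinase-specific conditions.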

GRK1, construct: Full length, human, sequence (Q15835 whole entry, looked up): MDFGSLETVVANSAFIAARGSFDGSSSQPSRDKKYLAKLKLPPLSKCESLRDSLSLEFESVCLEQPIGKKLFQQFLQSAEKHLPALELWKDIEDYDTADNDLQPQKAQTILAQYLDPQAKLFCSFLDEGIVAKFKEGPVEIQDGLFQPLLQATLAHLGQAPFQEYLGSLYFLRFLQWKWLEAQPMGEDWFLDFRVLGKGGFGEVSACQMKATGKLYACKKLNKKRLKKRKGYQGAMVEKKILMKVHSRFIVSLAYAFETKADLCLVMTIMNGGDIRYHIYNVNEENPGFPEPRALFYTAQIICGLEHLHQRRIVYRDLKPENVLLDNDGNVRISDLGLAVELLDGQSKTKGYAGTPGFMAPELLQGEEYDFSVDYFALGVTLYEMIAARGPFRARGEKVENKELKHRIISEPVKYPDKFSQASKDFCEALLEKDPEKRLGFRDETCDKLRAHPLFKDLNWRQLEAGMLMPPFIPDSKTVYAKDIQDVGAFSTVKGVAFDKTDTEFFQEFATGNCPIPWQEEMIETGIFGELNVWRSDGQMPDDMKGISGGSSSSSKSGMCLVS
EEF2K, construct: Full length, human, sequence (O00418 whole entry, looked up): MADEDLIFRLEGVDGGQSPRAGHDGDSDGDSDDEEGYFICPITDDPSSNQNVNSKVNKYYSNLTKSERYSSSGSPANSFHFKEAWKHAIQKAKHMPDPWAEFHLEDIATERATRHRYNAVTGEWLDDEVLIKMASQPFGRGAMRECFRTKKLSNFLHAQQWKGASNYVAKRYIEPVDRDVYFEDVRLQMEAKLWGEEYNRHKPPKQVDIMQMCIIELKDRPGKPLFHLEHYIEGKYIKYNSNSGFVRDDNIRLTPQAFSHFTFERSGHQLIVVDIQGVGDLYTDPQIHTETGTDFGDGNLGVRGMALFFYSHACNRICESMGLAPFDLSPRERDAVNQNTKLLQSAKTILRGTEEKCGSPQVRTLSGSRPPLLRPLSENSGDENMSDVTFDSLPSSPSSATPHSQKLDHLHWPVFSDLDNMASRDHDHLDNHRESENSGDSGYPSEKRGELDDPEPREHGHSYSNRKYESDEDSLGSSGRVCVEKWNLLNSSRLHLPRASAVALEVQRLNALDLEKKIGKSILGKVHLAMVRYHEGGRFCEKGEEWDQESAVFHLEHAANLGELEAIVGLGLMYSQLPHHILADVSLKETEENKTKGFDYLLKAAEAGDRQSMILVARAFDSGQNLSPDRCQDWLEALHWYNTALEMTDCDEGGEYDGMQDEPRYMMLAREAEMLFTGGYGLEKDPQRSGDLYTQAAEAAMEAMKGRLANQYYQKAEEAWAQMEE

EEF2K, construct: Full length, human (from UniProt O00418)
relative phosphorylation
Settings	at +1	at +2	at +3	at +4	at -1	at -2	at -3	at -4	at -5
A fixed	1.46	0.748	0.733	0.852	1.3	1.1	0.971	1.01	1.08
D fixed	0.421	0.233	0.609	0.742	1.24	1.24	1.14	0.912	0.748
E fixed	1.5	0.236	0.618	0.644	1.25	1.91	1.13	0.794	0.718
F fixed	0.935	1.16	0.583	0.718	0.881	0.935	0.971	1.61	1.17
G fixed	0.447	0.773	0.679	1.08	1.14	1.13	1.32	1.18	1.07
H fixed	0.864	1.31	0.766	1.28	1.08	0.929	0.971	0.878	0.873
I fixed	1.4	0.647	0.417	0.651	0.598	0.739	0.945	0.932	1.02
K fixed	0.992	2.31	3.25	2.03	0.978	0.631	0.975	1.11	1.24
L fixed	1.09	0.565	0.477	0.643	0.93	0.751	0.975	1.04	0.892
M fixed	1.13	0.909	0.504	0.799	1.05	0.848	0.978	1.17	1.1
N fixed	0.551	0.695	0.918	1.08	1.04	0.655	1.09	0.901	0.975
P fixed	0.253	0.361	0.337	0.96	0.96	1.57	1.08	0.889	1.03
Q fixed	1.33	0.965	0.88	1.07	0.983	1.06	0.893	0.809	0.847
R fixed	1.04	3.13	4.55	1.91	1.14	0.821	1.04	1.08	1.18
V fixed	1.72	0.776	0.537	0.665	0.567	0.833	0.848	0.876	0.993
W fixed	0.885	0.684	0.563	1.1	0.806	0.921	0.79	0.869	1.06
Y fixed	0.989	1.49	0.581	0.762	1.06	0.918	0.886	0.939	1.02
pThr fixed	0.777	0.601	0.648	1.05	0.619	0.91	1.27	0.982	1.29
pTyr fixed	1.85	0.381	0.882	0.738	1	2.03	1.3	0.754	1.47

GRK1, construct: Full length, human (from UniProt Q15835)
relative phosphorylation
Settings	at +1	at +2	at +3	at +4	at -1	at -2	at -3	at -4	at -5
A fixed	0.624	1.06	0.886	1.02	0.737	0.553	0.76	1.15	1.16
D fixed	0.767	1.81	2.19	2.5	1.31	0.963	1.16	1.43	2.29
E fixed	2.89	1.47	2.19	2.42	1.39	1.28	1.19	1.75	1.74
F fixed	0.711	0.778	0.638	0.645	0.641	2.3	0.881	0.585	0.659
G fixed	0.605	0.939	1.68	1.06	0.652	0.519	0.912	1.29	2.07
H fixed	0.592	0.984	0.958	0.932	0.962	0.701	0.746	0.843	0.894
I fixed	1.47	0.921	0.682	0.734	0.654	0.86	0.841	0.627	0.556
K fixed	0.65	0.587	0.793	0.622	1.56	0.619	0.706	0.673	0.682
L fixed	1.23	0.823	0.662	0.653	0.852	1.02	0.583	0.568	0.491
M fixed	0.973	0.961	0.721	0.662	0.723	0.708	0.671	0.645	0.533
N fixed	0.621	1.3	0.861	0.861	1.23	0.691	1.07	0.933	0.983
P fixed	0.522	0.592	0.823	1.18	2.04	1.11	2.74	2.68	1.31
Q fixed	1.11	1.06	0.956	0.82	0.932	0.65	0.966	0.897	0.708
R fixed	0.605	0.682	0.633	0.544	0.993	1.02	1.07	0.813	0.678
V fixed	2.36	1.03	0.703	0.8	0.811	0.66	0.956	0.777	0.638
W fixed	0.575	0.917	0.874	0.841	0.566	0.74	0.62	0.673	0.799
Y fixed	0.701	1.1	0.754	0.707	0.953	2.61	1.13	0.662	0.81
pThr fixed	2.35	0.972	1.21	3.6	3.08	4.99	3.2	1.84	1.43
pTyr fixed	3.09	2.14	1.38	2.98	1.92	1.75	1.76	1.46	1.13

MAP2K1, construct: Full length, human (from UniProt Q02750)
relative phosphorylation
Settings	at +1	at +2	at +3	at +4	at -1	at -2	at -3	at -4	at -5
A fixed	0.7	0.969	0.94	0.939	1.03	0.942	1.02	0.999	1.03
D fixed	1.55	0.835	1.02	1	0.876	0.955	1.02	1.13	1.08
E fixed	0.866	0.696	0.898	0.911	0.722	0.931	1	1.2	0.95
F fixed	1.18	0.746	0.992	0.92	0.933	1.72	1.04	1.04	1.81
G fixed	0.753	0.712	1.11	1.07	1.35	0.808	0.725	0.902	0.816
H fixed	0.877	3.48	1.29	0.998	1.02	2.03	1.07	1.11	0.992
I fixed	1.56	0.839	0.852	0.976	0.77	0.695	0.998	0.961	0.94
K fixed	0.629	0.84	0.923	0.885	1.07	0.768	1.09	0.861	0.925
L fixed	1.18	0.718	0.947	1.05	1.32	0.787	1.02	0.891	0.943
M fixed	1.42	0.924	0.909	0.949	1.14	1.02	1.02	1.06	0.909
N fixed	0.738	0.738	0.854	0.83	0.959	0.994	0.781	0.974	0.882
P fixed	0.71	0.775	0.969	1.04	0.768	0.615	0.707	0.806	0.935
Q fixed	0.743	0.79	0.854	0.916	0.967	0.834	0.92	0.896	0.886
R fixed	0.616	0.85	0.916	0.875	1.05	0.955	1.36	0.922	0.907
V fixed	1.21	0.913	0.861	0.895	0.848	0.67	0.94	1.06	0.978
W fixed	1.13	0.87	1.37	1.5	1.02	1.13	1.22	1.11	1.01
Y fixed	1.13	1.31	1.29	1.25	1.17	1.14	1.06	1.09	1.01
pThr fixed	1.45	1.08	0.988	1.02	0.87	0.824	1.7	1.14	0.922
pTyr fixed	1.11	0.882	1.11	0.958	0.875	0.763	0.869	1.04	0.873
